B1: Transitional endoplasmic reticulum ATPase, residues 26 to 106; numbered along this chain, P55072 (parent)
chain: LIVDEAINEDNSVVSLSQPKMDELQLFRGDTVLLKGKKRREAVCIVLSDDTCSDEKIRMNRVVRNNLRVRLGDVISIQPCP

Variants of: B1
Experiment: abundance fitness (aPCA) (normalised: wild type 0, dead -1); higher = more abundant; growth selection in yeast, the domain comes from the species named
Details: Homo sapiens

Abundance fitness of substitutions, site by site:
V62: L 0.005, F -0.023, C 0.029, M 0.022, P -0.378, N 0.109, K 0.003, A -0.04, I 0.011, H 0.038, D 0.004, R -0.013, G 0.025, Y -0.195, S 0.051, W -0.028
T51: W -0.275, D 0.026, N 0.126, L -0.117, I -0.19, K -0.065, C -0.064, E 0.05, R -0.086, H -0.515, Y -0.277, G -0.024, P -0.306, M -0.131, S -0.052, V -0.145, Q -0.183
I57: T -0.622, R -0.931, S -0.861, W -0.848, E -0.804, Q -0.816, M -0.198, K -0.931, V -0.019, A -0.356, C -0.492, L -0.224, N -0.716, P -0.933, G -0.951
D50: T -0.037, Q -0.277, N -0.105, R -0.057, P -0.105, Y -0.246, V -0.12
R64: Q -0.105, W -0.684, F -0.212, M -0.036, C -0.227, N -0.458, L -0.044, I -0.061, A -0.023, T -0.381, E -0.65, P -1.06, S -0.303, G -0.638, V -0.321, K -0.365, H -0.415
L67: S -0.893, G -0.896, W -0.976, N -0.757, A -0.601, I -0.057, C -0.175, E -0.853, R -0.956, M -0.247, F -0.411, D -0.823, V -0.35, P -0.789, T -0.693
K56: S 0.034, A 0.018, D -0.271, E -0.088, N 0.111, V -0.021, H -0.183, T 0.091, F -0.127, W -0.35, M -0.112, C 0.027, I 0.013, Y -0.022, L -0.047, Q 0.067, R -0.012, P -0.971, G 0.008
S53: V -0.022, R -0.035, L -0.026, W -0.22, K -0.016, G -0.019, T -0.019, F -0.032, C -0.042, D 0.021, P -0.142, E 0.003, Q 0.033, H -0.102, N 0.044, I -0.204, A -0.019, M -0.09
M59: A -0.258, K -1.03, E -0.768, R -1.08, G -1.01, C -0.066, T -0.275, V -0.166, I -0.002, P -1.12, W -0.99, F -0.333, S -0.817
V69: W -0.987, C 0.067, F -0.717, Q -0.689, G -0.886, A -0.045, H -1, I -0.022, K -0.514, Y -0.781, T -0.12, P -1.03, R -0.665, S -0.255, M -0.032
R61: M -0.178, L -0.006, T -0.009, K 0.079, H -0.157, S -0.024, Y -0.059, W -0.119, I -0.026, N -0.091, G -0.025, F -0.158, P -0.003, D -0.024, Q -0.036
